Assay results: patent publication US11111296B2, “Compositions and methods for treating cardiac dysfunction” (THE BROAD INSTITUTE, INC., priority 2015, dated 2021)

B1: S100A8/9: RAGE ligand, cachexia-inducing (protein)
chain 1: MLTELEKALNSIIDVYHKYSLIKGNFHAVYRDDLKKLLETECPQYIRKKGADVWFKELDINTDGAVNFQEFLILVIKMGVAAHKKSHEESHKE
chain 2: MTCKMSQLERNIETIINTFHQYSVKLGHPDTLNQGEFKELVRKDLQNFLKKENKNEKVIEHIMEDLDTNADKQLSFEEFIMLMARLTWASHEKMHEGDEGPGHHHKPGLGEGTP
B2: S100A7: RAGE ligand, cachexia-inducing; sequence NP_002954.2 (protein)
chain: MSNTQAERSIIGMIDMFHKYTRRDDKIEKPSLLTMMKENFPNFLSACDKKGTNYLADVFEKKDKNEDKKIDFSEFLSLLGDIATDYHKQSHGAAPCSGGSQ
B3: S100P: RAGE ligand, non-cachexia-inducing (protein)
chain: MTELETAMGMIIDVFSRYSGSEGSTQTLTKGELKVLMEKELPGFLQSGKDKDAVDKLLKDLDANGDAQVDFSEFIVFVAAITSACHKYFEKAGLK
B4: S100B: RAGE ligand, non-cachexia-inducing (protein)
chain: SELEKAMVALIDVFHQYSGREGDKHKLKKSELKELINNELSHFLEEIKEQEVVDKVMETLDNDGDGECDFQEFMAFVAMVTTACHEFFEHE

System: myosin heavy chain in cells
Assay: cachexia functional assay (levels of myosin heavy chain in treated cells)
Assay type: cell-based
Conditions: for cachexia-inducing activity of RAGE ligands: FIG. 8
Source text: The compounds that are thus designed or selected may further be tested in an in vitro, in vivo, or ex vivo assays to determine if they regulate RAGE. Such assays are known to one skilled in the art. In some embodiments, the assay is a cachexia functional assay as described herein and further described in PCT/US2014/068631, which is incorporated herewith in its entirety.
In studies described herein below, a refined model of the cachectic signal was obtained (FIG. 2). Functional sites on the RAGE polypeptide were determined using a combination of experiments mapping binding interface(s) of anti-RAGE antibodies with RAGE polypeptide using hydrogen-deuterium exchange (HDEX) reactions and cachexia functional assays. As described elsewhere herein, results of the cachexia functional assay indicate whether a candidate agent (e.g., a particular anti-RAGE antibody) has cachexia-inhibitory or cachexia-inducing activity, as measured, for example, by levels of myosin heavy chain in cells treated with the candidate agent relative to a control or baseline myosin heavy chain level.

| Molecule | cachexia-inhibitory activity (levels of myosin heavy chain) (cells treated with various concentrations of FPS3 (FIG. 7B)) | cachexia-inducing activity of RAGE ligands |
| --- | --- | --- |
| CCCCCC(=Cc1ccccc1)CN(CCc1c[nH]c2ccccc12)C(=O)c1ccc(Cl)c([N+](=O)[O-])c1 [FPS3, reference compound] | had cachexia-inhibitory activity |  |
| B1 |  | cachexia-inducing |
| B2 |  | cachexia-inducing |
| B3 |  | non-cachexia-inducing |
| B4 |  | non-cachexia-inducing |
